Data on 1 protein can be found in paper PMC6823310, “XszenFHal, a novel tryptophan 5-halogenase from Xenorhabdus szentirmaii” (AMB Express, 2019).

Substrate in this data set: N[C@@H](Cc1c[nH]c2ccccc12)C(=O)O
The data set can be described thus: initial rates of chlorination by UHPLC-UV, Michaelis-Menten fit. The format is biochemical, Xenorhabdus szentirmaii. As to conditions: 20 mM NaCl, 0.05 mM NADH, 0.01 mM FAD, flavin reductase K12Fre 0.1 μM, phosphate pH 7.5, 25 °C.

B1: XszenFHal (FHal16) (Xenorhabdus szentirmaii DSM 16338) (protein)
chain: MINSVLIVGGGTAGWMTAAYLSKAFDKNINITVVESKEVKKIGVGEATFSTVRHYFDYLGLNESEWLPECSGSYKLGIRFENWDGQGNHFYHPFERWEVVKGFPISEWWLSKKLKDQRFDYDTFLTPHLCEAKRSPRRLDGSLFAQSIDKSLGQSTLAEQRAQYPYAYHFDADGVASFLKRYAMNRGVKHIEDDVTHVEIDTNGNIGYLEAKIYGKLRADLYIDCTGFKGLLINKALNEPFISFSDVLKNNRAVALRVPRENENDIEPYTTARTMSNGWRWTIPLYKRNGYGYVYCNKYQSPEEAEMELRKSIPYENAECVANHIRMRIGRSNRSWVKNCVAIGLSSAFVEPLESTGIFFIQHGIEQLVRFFPRSSGNELLIEEYNTRVNRVVDGVKEFLLLHFSLAQRNDTLYWKEWKNVELPKELLKKITLAQDHLLDKETIYPFYHGFEEYSWNTMILGLCSGSLNNKPALSLMTSDEADEMLLQHYMKAENMVNNLPTCYEYLKHIHDLKNKN
notes: N-terminal His tag (modified pET22b(+)), expressed in E. coli BL21-CodonPlus (DE3)-RIPL
One may read the Km as the substrate concentration at which the rate is half of its maximum. A word on the kcat: it is the maximal rate divided by the concentration of active sites. In the case of B1, the Km turned out to be 58.22 µM and the kcat amounted to 0.074 s⁻¹.
